According to paper PMC9489782:
Values belong to the substance of their own block, whether it stands above or below them.

Key:
[1] = biological target: chimeric PAPP-A^1100-1111* (loop 2 replaced by amino acids 1125-1136 from PAPP-A2) (human)
[2] = biological target: PAPP-A^4C4S (C1112S, C1125S, C1130S and C1135S) (human)
[3] = biological target: Wild type (WT) PAPP-A (auto-cleaved) (human) (UniProt Q13219)
[4] = biological target: Wild type (WT) PAPP-A (auto-cleaved) (human) (UniProt Q13219); test: SEC; Superose 6 Increase 10/300 in 1X PBS, 0.5 mL/min; 0.2 mL of each protein at 1.4 uM; fractions on reduced SDS-PAGE
[5] = biological target: Wild type (WT) PAPP-A (auto-cleaved) (human) (UniProt Q13219); test: SEC-MALS; Superdex200 Increase 10/300 GL in PBS, 0.5 mL/min; PAPP-A and PAPP-A (E483A) 100 uL of 1 mg/mL; PAPP-A2 100 uL of 1, 3 and 6 mg/mL
[6] = biological target: N-terminal Alexa Fluor 568 conjugated IGFBP5^121-143 (human); test: fluorescence polarisation; direct binding: 5 nM N-terminal Alexa Fluor 568 IGFBP5^121-143, serial dilutions of WT PAPP-A (5.65 uM to 33 nM), PBS, room temperature, read at 10 min; EC50 of the fit taken as KD
IGFBP5 K128D (human) = IGFBP5 K128D (human) (UniProt P24593)
IGFBP5 K128A (human) = IGFBP5 K128A (human) (UniProt P24593)
FL IGFBP5 (human) = FL IGFBP5 (human) (UniProt P24593)
[7] = biological target: PAPP-A triple mutant L1254A/F1257A/H1211A (human)
[8] = biological target: FAM-labeled FL IGFBP5 (human) (UniProt P24593); test: fluorescence polarisation; direct binding: 5 nM FAM-labeled FL IGFBP5, serial dilutions of PAPP-A (E483A) (10 uM-50 nM), PBS, room temperature, read at 10 min; EC50 of the fit taken as KD
[9] = biological target: PAPP-A^1100-1135* (PAPP-A^1100-1135 replaced with PAPP-A2^1125-1162) (human)
[10] = biological target: catalytically inactive full-length (FL) PAPP-A (E483A) (human)

Chain of PAPP-A (1267) (Q13219 23-1627): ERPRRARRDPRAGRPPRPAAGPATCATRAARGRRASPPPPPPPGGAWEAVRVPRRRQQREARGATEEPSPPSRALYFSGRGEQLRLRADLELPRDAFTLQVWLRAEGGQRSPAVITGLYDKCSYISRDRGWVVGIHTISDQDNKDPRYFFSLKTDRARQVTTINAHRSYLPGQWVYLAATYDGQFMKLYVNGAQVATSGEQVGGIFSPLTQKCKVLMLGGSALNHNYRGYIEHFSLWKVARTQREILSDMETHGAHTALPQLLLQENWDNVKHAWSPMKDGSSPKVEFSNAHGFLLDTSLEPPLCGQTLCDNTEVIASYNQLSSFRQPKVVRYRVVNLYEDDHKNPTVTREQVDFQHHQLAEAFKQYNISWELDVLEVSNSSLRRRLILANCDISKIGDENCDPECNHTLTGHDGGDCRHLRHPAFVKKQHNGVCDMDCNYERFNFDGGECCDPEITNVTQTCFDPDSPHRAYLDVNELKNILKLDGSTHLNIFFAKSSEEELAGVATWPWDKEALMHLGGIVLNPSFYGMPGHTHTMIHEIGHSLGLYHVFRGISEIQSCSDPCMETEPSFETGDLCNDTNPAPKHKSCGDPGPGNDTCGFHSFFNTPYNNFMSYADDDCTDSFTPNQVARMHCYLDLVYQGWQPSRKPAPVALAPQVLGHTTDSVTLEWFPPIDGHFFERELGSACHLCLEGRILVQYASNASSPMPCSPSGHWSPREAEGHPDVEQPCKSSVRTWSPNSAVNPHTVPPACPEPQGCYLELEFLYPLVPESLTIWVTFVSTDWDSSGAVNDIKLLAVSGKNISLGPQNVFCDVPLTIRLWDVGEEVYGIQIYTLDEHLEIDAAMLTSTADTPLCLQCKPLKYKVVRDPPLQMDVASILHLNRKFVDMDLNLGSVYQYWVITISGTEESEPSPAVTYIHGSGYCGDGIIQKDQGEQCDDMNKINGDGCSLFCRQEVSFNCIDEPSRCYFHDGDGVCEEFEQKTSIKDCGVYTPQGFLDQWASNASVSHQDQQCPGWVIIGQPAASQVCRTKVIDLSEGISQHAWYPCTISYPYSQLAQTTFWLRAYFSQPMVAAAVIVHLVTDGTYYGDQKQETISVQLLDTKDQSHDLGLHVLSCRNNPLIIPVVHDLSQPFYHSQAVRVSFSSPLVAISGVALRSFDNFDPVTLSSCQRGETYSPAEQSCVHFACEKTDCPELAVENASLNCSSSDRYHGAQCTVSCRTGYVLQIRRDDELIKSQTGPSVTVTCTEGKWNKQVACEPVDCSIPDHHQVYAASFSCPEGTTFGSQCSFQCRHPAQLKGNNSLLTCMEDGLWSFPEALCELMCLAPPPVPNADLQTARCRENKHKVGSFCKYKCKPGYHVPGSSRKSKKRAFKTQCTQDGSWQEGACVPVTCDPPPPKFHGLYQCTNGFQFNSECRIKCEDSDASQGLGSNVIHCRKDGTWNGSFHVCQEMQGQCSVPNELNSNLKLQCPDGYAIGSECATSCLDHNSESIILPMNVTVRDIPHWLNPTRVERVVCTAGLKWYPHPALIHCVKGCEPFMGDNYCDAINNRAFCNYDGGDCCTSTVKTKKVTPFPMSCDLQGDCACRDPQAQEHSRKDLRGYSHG

EC50 of IGFBP4 cleavage (400 nM IGFBP4/700 nM IGF1) by the variant, gel-based assay, 37 °C, 4 h [1]: 519 pM
Substance: chimeric PAPP-A^1100-1111* (loop 2 replaced by amino acids 1125-1136 from PAPP-A2) (enzyme)

EC50 of IGFBP4 cleavage (400 nM IGFBP4/700 nM IGF1) by PAPP-A (1267), gel-based assay, 37 °C, 4 h (PAPP-A (1267) (human)): 597 pM
Substance: PAPP-A (1267) (domain or fragment)

EC50 of IGFBP4 cleavage (400 nM IGFBP4/700 nM IGF1) by the variant, gel-based assay, 37 °C, 4 h [2]: 402 pM
Substance: PAPP-A^4C4S (C1112S, C1125S, C1130S and C1135S) (enzyme)

EC50 of IGFBP4 cleavage (400 nM IGFBP4/700 nM IGF1) by WT PAPP-A, gel-based assay, 37 °C, 4 h [3]: 26 pM | stoichiometry N [4]: 2 | stoichiometry N [5]: 2 | Kd [6]: 380000 pM | EC50 (PAPP-A concentration) of proteolysis of 500 nM IGFBP5 K128D by WT PAPP-A, gel-based assay, 37 °C, 4 h (IGFBP5 K128D (human)): 15300 pM | EC50 (PAPP-A concentration) of proteolysis of 500 nM IGFBP5 K128A by WT PAPP-A, gel-based assay, 37 °C, 4 h (IGFBP5 K128A (human)): 1300 pM | EC50 (PAPP-A concentration) of proteolysis of 500 nM WT IGFBP5 by WT PAPP-A, gel-based assay, 37 °C, 4 h (FL IGFBP5 (human)): 53 pM
Substance: Wild type (WT) PAPP-A (auto-cleaved) (from UniProt Q13219 82-1627) (enzyme)

EC50 of IGFBP4 cleavage (400 nM IGFBP4/700 nM IGF1) by the triple mutant, gel-based assay, 37 °C, 4 h [7]: 2600 pM
Substance: PAPP-A triple mutant L1254A/F1257A/H1211A (enzyme)

Kd [8]: 250000 pM
Substance: catalytically inactive full-length (FL) PAPP-A (E483A) (enzyme)

EC50 of IGFBP4 cleavage (400 nM IGFBP4/700 nM IGF1) by the variant, gel-based assay, 37 °C, 4 h [9]: 954 pM
Substance: PAPP-A^1100-1135* (PAPP-A^1100-1135 replaced with PAPP-A2^1125-1162) (enzyme)

EC50 of IGFBP4 cleavage (400 nM IGFBP4/700 nM IGF1) by the co-expressed PAPP-A (FL, E483A)/PAPP-A (1132) heterodimer, gel-based assay, 37 °C, 4 h [10]: 466 pM
Substance: C-terminally truncated PAPP-A (1132) (domain or fragment)
